assay: yeast display, Sf9 membrane polyspecificity reagent, FACS + sequencing; frameworks hold sequencing errors
Summary of the method: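 Genes from sorted yeast were amplified by colony PCR, read by MiSeq 2 × 250 sequencing and filtered on CDR length. These cells carried a synthetic nanobody library in Saccharomyces cerevisiae BJ5465 and were sorted by FACS into low and high (top ~1%) gates on anti-HA and streptavidin fluorescence. Polyreactivity is labelled according to the gate of origin.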

Q: With “QVQLVESGGGLDQAGGSLRLSCAASGSTFPKYGMGWYRQSPGKDREFVARINWNGGGTYYADSVKGRFTISRDNAKNTVYLQMNSLKPEDTAVYYCAADYEYYYFWDYYWGQGTQVTVSS” as the sequence, how does the “polyreactivity (PSR sort gate)” value read?
A: low polyreactivity

Q: Which “polyreactivity (PSR sort gate)” value does the source give for “QVQLVESGGGLDQAGGSLRLSCAASGSTFRQNVKGWYRQAPGKERELVAAISKSGGSTYYADSVKGRFTISRDNAKNTVYLQMNSLKPEDTAVYYCATRQRQRVDNREYYYWGQGTQVTVSS” here?
A: high polyreactivity

Q: Which “polyreactivity (PSR sort gate)” value does the source give for “QVQLVESGGGLDQAGGSLRLSCAASGSTFVGYAMGWYRQAPGKERELVAAISYSGGRTYYADSVKGRFTISRDNAKNTVYLQMNSLKPEDTAVYYCAALVGGSGWWGRDYWGQGTQVTVSS” here?
A: high polyreactivity

Q: For “QVQLVESGGGLDQAGGSLRLSCAASGSTFVVNAMGWYRQAPGKERELVAAIRNSGSTTYADSVKGRFTISRDNAKYTVYLQMNSLKPEDTAVYYCATDFSATVTAVQINPYDYWGQGTQVTVSS”, which “polyreactivity (PSR sort gate)” value is on record?
A: low polyreactivity

Q: With “QVQLVESGGGLDQAGGSLRLSCAASGSTLGRNAMGWYRQAPGKERELVAAISSSSGRTYYADSVKGRFTISRDNAKNTVYLQMNSLKPEDTAVYYCAATHAVARPLEYDYWGQGTQVTVSS” as the sequence, how does the “polyreactivity (PSR sort gate)” value read?
A: low polyreactivity

Q: With “QVQLVESGGGLDQAGGSLRLSCAASGTFSRNAMGWYRQAPGKERELLADISGGRSTDYADSVKGRFTISRDNAKNTVYLQMNSLKPEDTAVYYCAAYGYLWWEMDYWGQGTQVTVSS” as the sequence, how does the “polyreactivity (PSR sort gate)” value read?
A: high polyreactivity

Q: With “QVQLVESGGGLDQAGGSLRLSCAASGYTFFSNAMGWYRQAPGKERELVAAITFSGGSTYYADSVKGRFTISRDNAKNTVYLHMNSLKPEDTAVYYCATRYYYHYPRKHIYNYWGQGTQVTVSS” as the sequence, how does the “polyreactivity (PSR sort gate)” value read?
A: high polyreactivity

Q: For “QVQLVESGGGLDQAGGSLRLSCAASVSTFLVNTMGWYRQAPGKEREFVAAYADSVKGRFTISRDNAKNTVYLQMNSLKPEYTAVYYCNAGGSEIYRSPFDYWGQGTQVTVSS”, which “polyreactivity (PSR sort gate)” value is on record?
A: low polyreactivity

Q: Which “polyreactivity (PSR sort gate)” value does the source give for “QVQLVESGGGLDQAGGSLRLSCADSGSIFVYYAMGWYRQAPGKERELVAAITTSGGSTYYADSVKGRFTISRDNAKNTVYLQMNSLKPEDTAVYYCAAELLAWYWSYSVPWPYDYWGQGTQVTVSS” here?
A: low polyreactivity

Q: With “QVQLVESGGGLDQAGGSLRLSCADSGYTFRAYAMGWYRQAPGKERELVAAITRSGTSTYYADSVKGRFTISRDNAKNTVYLQMNSLKPEDTAVYYCNVDVYLYAKEYDYWGQGTQVTVSS” as the sequence, how does the “polyreactivity (PSR sort gate)” value read?
A: high polyreactivity

Q: For “QVQLVESGGGLDQAGGSLRLSCASGRIFKKNAMGWYRQAPGNERELVAGITISGGRTYYADSVKGRFTISRDNAKNTVYLQMNSVKPEDTAVYYCNAGPDRRVSYYRLLDHWGQGTQVTVSS”, which “polyreactivity (PSR sort gate)” value is on record?
A: low polyreactivity

Q: For “QVQLVESGGGLDQAGGSLRLSCPASGITFGYNDMGRYRQAPGKERELVAAINRGASTYYADSVKGRFTISRDNAKNTVYLQMYSLKPEDTAVYYCNADHRDTFIWVGLPHMDYWGQGTQVTVSS”, which “polyreactivity (PSR sort gate)” value is on record?
A: low polyreactivity

Q: With “QVQLVESGGGLDQAGGSLRLSSAASGRTVDIYAMGWYRQAPWKEWELVAAITRGGSTYYADSVKGRFTISRDNAKNTVYLQMNCLIPEDTAVYYCSAKLGTGYRRWYDYWGQGTQVTVSS” as the sequence, how does the “polyreactivity (PSR sort gate)” value read?
A: high polyreactivity

Q: Which “polyreactivity (PSR sort gate)” value does the source give for “QVQLVESGGGLDQAGGSRRLSCAASGSTFSSYAMGWYSQAPGQARELVAVITASGGSTYYADSVKGRFTISRDNPKNTVYLQMNSLKPDDTAVYYCAADPRSGDQYGKGDYWGQGTQVTGSS” here?
A: low polyreactivity

Q: With “QVQLVESGGGLDQAGSSLSLSCDSSGRIFYGYAMGWYRQEPGKERELVAAISWRGGRTYYADSVKGRFTISRDNAKNTVYLQMNRLIPEDTAVYYCNKDFPPQGKLLNMYYWGQGTQVTLSS” as the sequence, how does the “polyreactivity (PSR sort gate)” value read?
A: high polyreactivity

Q: For “QVQLVESGGGLDQAGVSLRLSCAASGRTFGGYAMGWYRQAPGKERELVASITSGGSTYYADSVKGRFTISRDNAKNTVYLQMNSLKPEDTAVYYCAADTYFETSTRAIPTNDYWGQGTQVTVSS”, which “polyreactivity (PSR sort gate)” value is on record?
A: low polyreactivity

Q: With “QVQLVESGGGLDQARGSLRLSCAASGRIFELYAMGWYRQAPGKERELVAAITSSGGTTYYADSVKGRFTISRDNAKNTVYLQMNSLKPEDTAVYYCNTVYATRYDYWGQGTQVTVSS” as the sequence, how does the “polyreactivity (PSR sort gate)” value read?
A: high polyreactivity

Q: Which “polyreactivity (PSR sort gate)” value does the source give for “QVQLVESGGGLDQARGSLRLSCAASGRTFRYYAMGWYRQAPWKERELVAAISSRGTRTYYADSVKGRFTISRDNAKNTVYLQMNSLKPEDTAVYYCATRYYQELSYDYWGQGTQVIVSS” here?
A: high polyreactivity

Q: With “QVQLVESGGGLDQARGSLRLSCAASGSTFGRYAIGWYRQAHGKERELVAAINSRGGRTYYADSVKGRFTISRDNAKNTVYLQMNSLKPEVTAVYYCAAPTGPKGYYSDRGDSWGQGTQVTLSS” as the sequence, how does the “polyreactivity (PSR sort gate)” value read?
A: low polyreactivity

Q: Which “polyreactivity (PSR sort gate)” value does the source give for “QVQLVESGGGLDQARGTLSLICAASGSIFRHYAMGWYRQAPWKERELVAAISGSGATTYYADSVKGRFTISRDNAKNTVYLQMKSLKPVDNAVYYCAARTTYITTWVYRHNYTYYYWGQGTQVTVSS” here?
A: high polyreactivity

Q: With “QVQLVESGGGLDQEGGSLRLSCAASGSTFAVHVMGWYRHAPGKERELVATITYRDGRTYYADSVKGRFTISRDNANNTVYLQMNSLKPEDTAVYYCAADWYTTYDYWGQGTQVTVSS” as the sequence, how does the “polyreactivity (PSR sort gate)” value read?
A: low polyreactivity

Q: With “QVQLVESGGGLEQAGGSLRLSCAASGLIFRGYVMGWYRPAPGKERELVAAISRRGVNTYYADSVKGRFTISRDNSKNTVYLQMNSLKPEDTAVYYCAAETHVGWPAKFDYWGQGTQVTVSS” as the sequence, how does the “polyreactivity (PSR sort gate)” value read?
A: high polyreactivity

Q: For “QVQLVESGGGLEQAGGSLRLSCAASGLTFSAYVMAWYRLAPGKERELVAAISRRGGSTYYAYSVKGRFTISRDNAKNTVYLQMNSLKPEDTAVYYCAARKVAVRGYGYWGQGTQVTVSS”, which “polyreactivity (PSR sort gate)” value is on record?
A: high polyreactivity

Q: Which “polyreactivity (PSR sort gate)” value does the source give for “QVQLVESGGGLFKAGGSLRLSSAASGSIFQNYDMGWYRQAPGNERELVAAISSSGDTYYADSVKGRFTISLDNAKNTVYLQMNSLKPEDTAVYYCAATYPYSLYYPYYGGDYDYWGQGTQVTVSS” here?
A: low polyreactivity

Q: Which “polyreactivity (PSR sort gate)” value does the source give for “QVQLVESGGGLFQAGGRLRLICAASGRIFTTNAMGWYRQAPGKERELVPAISRSGGSTNYADSVKGRFTISRDNAKNTVYLQMNSLIPEDTAVYYCAAVPTCNSFRSSFYYWGQGTQVTVSS” here?
A: high polyreactivity

Q: Which “polyreactivity (PSR sort gate)” value does the source give for “QVQLVESGGGLFQAGGSHRLSCAASGSTFYYKAMGWYRQAPGKESELVARISRSGGSTYADSVKGRFTISRDNAKNNVYLQMNSLKPEDTAVYYCNKRGFYTPSVSYDYWGQGTQVTVSS” here?
A: low polyreactivity

Q: For “QVQLVESGGGLFQAGGSLRLICAASGRIFDVNAMGWYRQAPGKERELVAAISWSGGITYYADSVKGRFTISRDNAKNTVYLQINSLKPEDTAVYYCAADKYQGYTFYQGYPGGGGYWGQGTQVTVSS”, which “polyreactivity (PSR sort gate)” value is on record?
A: low polyreactivity

Q: With “QVQLVESGGGLFQAGGSLRLNCAASGSIFGSYAMVWYIQAPGKELELVAAITSDGITNYADSVKGRFTISRDNEKNTDYLQMNSLKPEDTAVYYCAAPGPLGGSDYWGQGTQVTVSS” as the sequence, how does the “polyreactivity (PSR sort gate)” value read?
A: low polyreactivity

Q: With “QVQLVESGGGLFQAGGSLRLSCAANGSIFDYYAMGWYRQSPGKERELVAAITRSGVRTYYADSVKGRFTISRDNAKNTVYLQMNSMKPEDTAVYYCGAVYYPLSFDNDYWGQGTQVTVSS” as the sequence, how does the “polyreactivity (PSR sort gate)” value read?
A: high polyreactivity

Q: Which “polyreactivity (PSR sort gate)” value does the source give for “QVQLVESGGGLFQAGGSLRLSCAASGFIFLVNAMGWYRPAPGKERELVAAISKSTGGTYYADSVKGRFTISRDNAKNTVYLQMYSLKPEDTAVYSCAADEVYPVQRDMDYWGQGTQETVSS” here?
A: low polyreactivity

Q: Which “polyreactivity (PSR sort gate)” value does the source give for “QVQLVESGGGLFQAGGSLRLSCAASGFTFIYYAMGSYRQAPGKATELVSAITHSGGSTYYADSVKGRFTISRDNAKTTVSLQMNSLNPEDTAVYYCAARLTWSRYQKYRTSSWQSYYWGQGTQVTVSS” here?
A: high polyreactivity

From the nanobody polyreactivity screen of Harvey et al. (2022)
